One block for each binder: values may come before it.
How the values were obtained:
[1] = target: the molecule itself; assay: crystal structure; CYRI-BΔN alone, selenomethionine SAD, 2.37Å, two molecules in the asymmetric unit; crystals at 291K, 0.1M carboxylic acid, 8% MPD_P1K_P33, 0.1M MOPS/HEPES-Na pH 8.0
Rac1Q61L = Rac1Q61L (human, UniProt P63000 1-192, Q61L); assay: SPR; Biacore T200; anti-MBP antibody coupled on a CM5 chip; MBP-CYRI-BΔN captured (~800 RU) on flow-cell 2, MBP (400 RU) on flow-cell 1; Rac1Q61L 0.625μM-80μM as analyte; conditions: both partners purified

B1: mouse CYRI-B residues 26-324 (CYRI-BΔN) (domain or fragment, UniProt Q921M7 26-324, looked up)
chain: AQPTESEKEIYNQVNVVLKDAEGILEDLQSYRGAGHEIREAIQHPADEKLQEKAWGAVVPLVGKLKKFYEFSQRLEAALRGLLGALTSTPYSPTQHLEREQALAKQFAEILHFTLRFDELKMTNPAIQNDFSYYRRTLSRMRINNVPAEGENEVNNELANRMSLFYAEATPMLKTLSDATTKFVSENKNLPIENTTDCLSTMASVCRVMLETPEYRSRFTNEETVSFCLRVMVGVIILYDHVHPVGAFAKTSKIDMKGCIKVLKDQPPNSVEGLLNALRYTTKHLNDETTSKQIRSMLQ
modifications: selenomethionine labelled
notes: CYRI-B (Fam49B), mouse, residues 26-324 (entire DUF1394 domain; N-terminal residues 1-25 truncated); Two copies in the asymmetric unit of PDB 7AJL; also called Fam49B; source: E. coli B834 (DE3), selenomethionine labelled, purified (HisTrap, TEV, HisTrap flow-through, Superdex S200); not shown: His10, N-terminal, cleaved; MBP, N-terminal, cleaved
binding result [1]: binds

Kd (Rac1Q61L): 25 µM
B2: MBP-CYRI-BΔN (domain or fragment)
chain: B1 chain
notes: The purification of the uncleaved MBP fusion used for SPR is not described; source: E. coli BL21 pLysS; not shown: His10, N-terminal, kept; MBP, N-terminal, kept
